Assay [1] addresses Rse.gD (human Rse receptor with a C-terminal HSV-1 glycoprotein D flag) on dp12.CHO cells (human) (UniProt Q06418).
The target is the same in assay [2]. The source holds these as a separate data set.
Assay [3] addresses Rse-IgG fusion protein (extracellular domain of human Rse followed by the Fc portion of human IgG) (human) (UniProt Q06418). Put plainly: 125I-Rse-IgG binding to CMK11-5 membranes.
Assay [4] shares this target. In words: 125I-Rse-IgG binding assay.
In assay [5] the target is recombinant human gas6 (human). In words: 125I-Rse-IgG and purified gas6, displaced by unlabeled Rse-IgG, barium chloride coprecipitation.
Assay [6] concerns the target Rse ligand (Rse-L) in fetal bovine serum, unpurified or Q-Sepharose enriched (bovine) (UniProt P07224). Put plainly: Scatchard analysis, 125I-Rse-IgG displaced by unlabeled Rse-IgG on CMK11-5 membranes, 10% FBS.
Assay [7] has the same target. Put plainly: Scatchard analysis, 125I-Rse-IgG displaced by unlabeled Rse-IgG on CMK11-5 membranes, 1% FBS.

In assay [1], “recombinant human gas6 lacking the gamma-carboxyl modification of glutamic acid (form 2) (ligand)” came in with a KIRA assay, specific activity (KIRA units/mg P) of 3160.
For the substance “gD.gas6.279-C.IgG (from UniProt P01857-1) (Fc fusion)”, the KIRA assay, EC50 for activation in assay [2] turned out to be 0.4 nM.
For the substance recombinant human gas6 (ligand), the KIRA assay, specific activity (KIRA units/mg P) in assay [1] came to 1170.
On to “purified bovine protein S (Rse-L purified from fetal bovine serum) (from UniProt P07224) (ligand)”, for which the EC50 (as a rule, the concentration that produces a half-maximal response) in assay [3] is 1.2 nM.
The substance human protein S (ligand) registered an EC50 in assay [3] above 250 nM. The same substance came in with a fold lower affinity than purified bovine protein S in assay [4] of 200 fold.
Take “Rse-IgG fusion protein (extracellular domain of human Rse followed by the Fc portion of human IgG) (from UniProt Q06418) (Fc fusion)”: the Kd (usually the free concentration of one partner at which half of the binding sites on the other are occupied at equilibrium, for simple one-to-one binding) is 0.46 nM in assay [5], 2.2 nM in assay [6] and 0.82 nM in assay [7].

Source of the values: patent publication US5955420.
